The source of these data is patent publication US20150344570A1 (published 2015).

The target in assay [1] is T1, Protein A (UniProt P38507 37-327).
T1 construct: Commercial chromatography resin; also called rProtein A Sepharose Fast Flow (GE Healthcare)
Nature of the assay: Protein A column chromatography, stepwise pH elution; eluted fractions analysed by cation exchange chromatography (peak area %).

For assay [2], the target named is T2, Protein A (UniProt P38507 37-327).
T2 construct: bought recombinant resin; also called rProtein A Sepharose Fast Flow
Description: Protein A affinity chromatography, stepwise pH elution. From the text: Samples purified by batchwise elution were used as controls.

Assay [3] addresses T2, Protein A. Nature of the assay: Protein A affinity chromatography, elution at pH 3.6.
Assay [4] deals with T2, Protein A. Description: Protein A affinity chromatography, elution at pH 3.6 and pH 2.7.
For assay [5], the target named is T1, Protein A. Nature of the assay: Protein A column chromatography, pH 3.6 elution; eluted fraction analysed by cation exchange chromatography (peak area %). The protocol:
The quantity of CM to be loaded was adjusted in a way that the quantity of the loaded antibody is 20 mg/ml resine. Fractions eluted under each condition were collected and the components contained in each elution fraction were identified by cation exchange chromatography analysis. […] Samples purified by batchwise elution were used as controls.
The values represent the area of elution peak expressed in percentage.

B1: J142-z72/L180-k (antibody, human IgG4 S228P, kappa)
heavy: QVQLVQSGSELKKPGASVKVSCKASGYTFTDNNMDWVRQAPGQGLEWMGDINTRSGGSIYNEEFQDRVTMTIDKSTGTAYMELSSLRSEDTAVYYCARRRSYGYYHDEWGEGTLVTVSSASTKGPSVFPLAPCSRSTSESTAALGCLVKDYFPEPVTVSWNSGALTSGVHTFPAVLQSSGLYSLSSVVTVPSSSLGTKTYTCNVDHKPSNTKVDKRVESKYGPPCPPCPAPEFLGGPSVFLFPPKPKDTLMISRTPEVTCVVVDVSQEDPEVQFNWYVDGVEVHNAKTKPREEQFNSTYRVVSVLTVLHQDWLNGKEYKCKVSNKGLPSSIEKTISKAKGQPREPQVYTLPPSQEEMTKNQVSLTCLVKGFYPSDIAVEWESNGQPENNYKTTPPVLDSDGSFFLYSRLTVDKSRWQEGNVFSCSVMHEALHNRFTQKSLSLSP
light: DIQMTQSPSSLSASVGDRVTITCKASRNIERNLAWYQQKPGQAPELLIYSASRKESGVPDRFSGSRYGTDFTLTISSLQPEDLATYYCQQYYSPPLTFGGGTKVEIKRTVAAPSVFIFPPSDEQLKSGTASVVCLLNNFYPREAKVQWKVDNALQSGNSQESVTEQDSKDSTYSLSSTLTLSKADYEKHKVYACEVTHQGLSSPVTKSFNRGEC
notes: also called homomeric antibody against FX
B1: the binding result in assay [1] is on record as “no binding”.

B2: J142-z72/L180-k (antibody, human IgG4 S228P, kappa)
heavy: QVQLVQSGSELKKPGASVKVSCKASGYTFTDNNMDWVRQAPGQGLEWMGDINTRSGGSIYNEEFQDRVTMTIDKSTGTAYMELSSLRSEDTAVYYCARRRSYGYYHDEWGEGTLVTVSSASTKGPSVFPLAPCSRSTSESTAALGCLVKDYFPEPVTVSWNSGALTSGVHTFPAVLQSSGLYSLSSVVTVPSSSLGTKTYTCNVDHKPSNTKVDKRVESKYGPPCPPCPAPEFLGGPSVFLFPPKPKDTLMISRTPEVTCVVVDVSQEDPEVQFNWYVDGVEVHNAKTKPREEQFNSTYRVVSVLTVLHQDWLNGKEYKCKVSNKGLPSSIEKTISKAKGQPREPQVYTLPPSQEEMTKNQVSLTCLVKGFYPSDIAVEWESNGQPENNYKTTPPVLDSDGSFFLYSRLTVDKSRWQEGNVFSCSVMHEALHNRFTQKSLSLSP
light: DIQMTQSPSSLSASVGDRVTITCKASRNIERNLAWYQQKPGQAPELLIYSASRKESGVPDRFSGSRYGTDFTLTISSLQPEDLATYYCQQYYSPPLTFGGGTKVEIKRTVAAPSVFIFPPSDEQLKSGTASVVCLLNNFYPREAKVQWKVDNALQSGNSQESVTEQDSKDSTYSLSSTLTLSKADYEKHKVYACEVTHQGLSSPVTKSFNRGEC
notes: also called homomeric antibody J142-z72; homomeric antibody against FX
Take B2: in assay [2], the binding result is on record as “no binding”.

B3: J300-z107/L210-k (antibody, human IgG4 S228P, kappa)
heavy: QVQLVQSGSELKKPGASVKVSCKASGYTFTDNNMDWVRQAPGQGLEWMGDINTRSGGSIYNEEFQDRVIMTVDKSTDTAYMELSSLRSEDTAVYHCARRKSYGYYLDEWGEGTLVTVSSASTKGPSVFPLAPCSRSTSESTAALGCLVKDYFPEPVTVSWNSGALTSGVHTFPAVLQSSGLYSLSSVVTVPSSSLGTQTYTCNVDHKPSNTKVDKRVESKYGPPCPPCPAPEFLGGPSVFLFPPKPKDTLMISRTPEVTCVVVDVSQEDPEVQFNWYVDGVEVHNAKTKPREEQYNSTYRVVSVLTVLHQDWLNGKEYKCKVSNKGLPSSIEKTISKAKGQPREPQVYTLPPSQEEMTKNQVSLTCLVKGFYPSDIAVEWESNGQPENNYKTTPPVLDSDGSFFLYSKLTVDKSRWQEGNVFSCSVMHEALHNRYTQESLSLSP
light: DIQMTQSPSSLSASVGDRVTITCKASRNIERNLAWYQQKPGQAPELLIYSASRKESGVPDRFSGSRYGTDFTLTISSLQPEDIATYYCQQYSSPPLTFGGGTKVEIKRTVAAPSVFIFPPSDEQLKSGTASVVCLLNNFYPREAKVQWKVDNALQSGNSQESVTEQDSKDSTYSLSSTLTLSKADYEKHKVYACEVTHQGLSSPVTKSFNRGEC
notes: also called homomeric antibody J300-z107
Turning to B3, the binding result in assay [3] was “no binding”.

B4: J142-z73/L180-k (antibody, human IgG4 S228P, kappa)
heavy: QVQLVQSGSELKKPGASVKVSCKASGYTFTDNNMDWVRQAPGQGLEWMGDINTRSGGSIYNEEFQDRVTMTIDKSTGTAYMELSSLRSEDTAVYYCARRRSYGYYHDEWGEGTLVTVSSASTKGPSVFPLAPCSRSTSESTAALGCLVKDYFPEPVTVSWNSGALTSGVHTFPAVLQSSGLYSLSSVVTVPSSSLGTKTYTCNVDHKPSNTKVDKRVESKYGPPCPPCPAPEFLGGPSVFLFPPKPKDTLMISRTPEVTCVVVDVSQEDPEVQFNWYVDGVEVHNAKTKPREEQFNSTYRVVSVLTVLHQDWLNGKEYKCKVSNKGLPSSIEKTISKAKGQPREPQVYTLPPSQEEMTKNQVSLTCLVKGFYPSDIAVEWESNGQPENNYKTTPPVLDSDGSFFLYSRLTVDKSRWQEGNVFSCSVMHEALHNRFTQESLSLSP
light: DIQMTQSPSSLSASVGDRVTITCKASRNIERNLAWYQQKPGQAPELLIYSASRKESGVPDRFSGSRYGTDFTLTISSLQPEDLATYYCQQYYSPPLTFGGGTKVEIKRTVAAPSVFIFPPSDEQLKSGTASVVCLLNNFYPREAKVQWKVDNALQSGNSQESVTEQDSKDSTYSLSSTLTLSKADYEKHKVYACEVTHQGLSSPVTKSFNRGEC
notes: also called homomeric antibody J142-z73
On to B4, for which the binding result in assay [4] is listed as “no binding”.

B5: J300-z107/L210-k (antibody, human IgG4 S228P, kappa)
heavy: QVQLVQSGSELKKPGASVKVSCKASGYTFTDNNMDWVRQAPGQGLEWMGDINTRSGGSIYNEEFQDRVIMTVDKSTDTAYMELSSLRSEDTAVYHCARRKSYGYYLDEWGEGTLVTVSSASTKGPSVFPLAPCSRSTSESTAALGCLVKDYFPEPVTVSWNSGALTSGVHTFPAVLQSSGLYSLSSVVTVPSSSLGTQTYTCNVDHKPSNTKVDKRVESKYGPPCPPCPAPEFLGGPSVFLFPPKPKDTLMISRTPEVTCVVVDVSQEDPEVQFNWYVDGVEVHNAKTKPREEQYNSTYRVVSVLTVLHQDWLNGKEYKCKVSNKGLPSSIEKTISKAKGQPREPQVYTLPPSQEEMTKNQVSLTCLVKGFYPSDIAVEWESNGQPENNYKTTPPVLDSDGSFFLYSKLTVDKSRWQEGNVFSCSVMHEALHNRYTQESLSLSP
light: DIQMTQSPSSLSASVGDRVTITCKASRNIERNLAWYQQKPGQAPELLIYSASRKESGVPDRFSGSRYGTDFTLTISSLQPEDIATYYCQQYSSPPLTFGGGTKVEIKRTVAAPSVFIFPPSDEQLKSGTASVVCLLNNFYPREAKVQWKVDNALQSGNSQESVTEQDSKDSTYSLSSTLTLSKADYEKHKVYACEVTHQGLSSPVTKSFNRGEC
notes: Homomeric by-product in the culture medium of Q407-z106/J300-z107/L210-k; also called homomeric antibody against FX
On to B5, for which the binding result in assay [5] is “no binding”.
